Laboratory results: patent US8062638 (Chugai, dated 2011)
Residue numbers refer to the chain shown, from its start. One block for each binder: values may come before it.

What was measured:
[1] = biological target: T1, human tissue factor (TF) on cells (human, UniProt P13726 33-295); assay: cell ELISA on fixed J82 cells expressing TF
T1 construct: also called human TF; the antigen

[2] = biological target: T1, human tissue factor (TF) on cells; assay: cell ELISA on fixed J82 cells expressing TF; chimeric antibody is the reference

- binding result [1]: binds
B1: chimeric H chain / humanized L chain version c antibody (antibody, V domains shown)
VH: EVQLQQSGTNLVRPGALVKLSCKGSGFNIKDYYMHWVKQRPEQGLEWIGGNDPANGHSMYDPKFQGKASITADTSSNTAYLQLSSLTSEDTAVYFCARDSGYAMDYWGQGTSVTVSS
VL: DIQMTQSPSSLSASVGDRVTITCKASQDIKSFLSWYQQKPGKAPKLLIYYATSLADGVPSRFSGSGSGTDYTLTISSLQPEDIATYYCLQHGESPYTFGGGTKVEIK
notes: Expressed from N5KG4P (human IgG4-type)

- binding result [1]: binds
B4: humanized H chain version a / chimeric L chain antibody (antibody, V domains shown)
VH: QVQLLESGAVLARPGTSVKISCKASGFNIKDYYMHWVKQRPGQGLEWIGGNDPANGHSMYDPKFQGRAKLTAATSASIAYLEFSSLTNEDSAVYYCARDSGYAMDYWGQGTLVTVSS
VL: DIKMTQSPSSMYASLGERVTITCKASQDIKSFLSWYQQKPWKSPKTLIYYATSLADGVPSRFSGSGSGQDYSLTINNLESDDTATYYCLQHGESPYTFGGGTKLEIK
notes: as for B1

The remaining lines, values behind:

B2: humanized H chain version a / humanized L chain version a antibody (antibody, V domains shown)
VH: B4 VH
VL: B1 VL with Y71F, I83F
notes: as for B1
- binding result [1]: binds

B3: chimeric ATR-5 antibody (H chain chimeric/L chain chimeric) (antibody, V domains shown)
VH: B1 VH
VL: B4 VL
notes: Mouse ATR-5 V regions on human C regions; Both IgG1-type (N5KG1(V)) and IgG4-type (N5KG4P) vectors were made; also called ch-ch; chimeric antibody
- binding result [2]: binds
